The source of these data is US20200140532A1 (Ablynx, published 2020).

What is called EC50 is the concentration that produces a half-maximal response. What is called koff is the first-order rate constant of dissociation.

The target of assay [1] is T1, recombinant bovine Aggrecan G1-IGD-G2 (bovine, UniProt P13608 20-684, limits assumed).
T1 construct: also called Bov G1-IGD-G2; Boy G1-IGD-G2
Briefly: ELISA on recombinant G1-IGD-G2. On the technique in general: An ELISA detects its analyte on a solid surface through an enzyme-linked reagent.

The target in assay [2] is T2, recombinant dog Aggrecan G1-IGD-G2 (dog, UniProt Q28343 20-693, limits assumed).
T2 construct: also called Dog G1-IGD-G2
Briefly: ELISA on recombinant G1-IGD-G2.

The target of assay [3] is T3, recombinant rat Aggrecan G1-IGD-G2 (rat, UniProt P07897 20-684, limits assumed).
T3 construct: also called Rat G1-IGD-G2
Briefly: ELISA on recombinant G1-IGD-G2.

In assay [4] the target is T4, recombinant human Aggrecan G1-IGD-G2 (human, UniProt P16112 20-676).
T4 construct: Only the G1-IGD-G2 region was used (R&D Systems 1220-PG is named for the immunogen); also called Hu G1-IGD-G2
Briefly: ELISA on recombinant G1-IGD-G2.

Assay [5] concerns the target T1, recombinant bovine Aggrecan G1-IGD-G2. Briefly: SPR (ProteOn), off-rate only indicative.
Protocol: (§1) SPR (ProteOn) experiments were carried out for the “monovalent” Aggrecan-ALB26 formats in order to determine off-rates.
For assay [6], the target named is T2, recombinant dog Aggrecan G1-IGD-G2. Briefly: SPR (ProteOn), off-rate only indicative.
Protocol: as §1
Assay [7] addresses T3, recombinant rat Aggrecan G1-IGD-G2. Nature of the assay: SPR (ProteOn), off-rate only indicative.
Protocol: as §1
In assay [8] the target is T4, recombinant human Aggrecan G1-IGD-G2. Briefly: SPR (ProteOn), off-rate only indicative.
Protocol: as §1
The target of assay [9] is T5, recombinant human Brevican (human, UniProt Q96GW7 23-911, limits assumed).
T5 sequence: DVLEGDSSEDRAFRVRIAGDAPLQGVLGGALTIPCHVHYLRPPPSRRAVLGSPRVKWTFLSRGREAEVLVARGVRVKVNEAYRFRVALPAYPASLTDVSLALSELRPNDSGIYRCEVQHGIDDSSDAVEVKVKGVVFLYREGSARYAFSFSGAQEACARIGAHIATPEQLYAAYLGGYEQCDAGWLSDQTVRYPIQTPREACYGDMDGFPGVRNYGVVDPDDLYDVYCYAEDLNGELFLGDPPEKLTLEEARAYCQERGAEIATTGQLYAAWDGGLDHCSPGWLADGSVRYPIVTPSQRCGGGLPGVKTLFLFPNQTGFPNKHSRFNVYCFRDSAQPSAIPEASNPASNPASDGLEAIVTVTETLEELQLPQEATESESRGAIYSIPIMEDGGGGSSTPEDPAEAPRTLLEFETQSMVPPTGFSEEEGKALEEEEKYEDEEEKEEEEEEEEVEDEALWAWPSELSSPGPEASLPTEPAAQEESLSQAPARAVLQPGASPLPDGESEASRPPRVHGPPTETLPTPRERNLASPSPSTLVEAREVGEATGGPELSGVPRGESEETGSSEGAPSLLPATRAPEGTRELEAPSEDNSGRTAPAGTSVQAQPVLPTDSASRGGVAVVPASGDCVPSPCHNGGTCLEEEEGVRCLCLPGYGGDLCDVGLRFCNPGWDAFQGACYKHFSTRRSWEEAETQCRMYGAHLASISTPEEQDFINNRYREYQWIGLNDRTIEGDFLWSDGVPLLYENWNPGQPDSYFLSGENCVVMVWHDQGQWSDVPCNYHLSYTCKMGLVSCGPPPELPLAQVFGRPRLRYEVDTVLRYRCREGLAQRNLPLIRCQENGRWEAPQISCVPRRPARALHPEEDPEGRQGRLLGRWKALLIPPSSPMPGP
Nature of the assay: ELISA on recombinant human Brevican.

The target in assay [10] is recombinant human Neurocan (human, UniProt O14594 23-1321, limits assumed). Briefly: ELISA on recombinant human Neurocan.

B1: C01010046 (601E08-ALB26) (VHH, not shown: small tags and cut ends)
VHH: DVQLVESGGGLVQPGGSLRLSCTASGRTFSSYAVGWFRQAPGKEREFVAAISRSGRSTYYADSVKGRFTISRDNSKNTVYLQMNSLRPEDTAVYYCAAGLSYYSPHAYYDYWGQGTLVTVSS
Consider B1, for which the EC50 in assay [1] was 1.2 nM; in assay [2] it was 0.61 nM; in assay [3] it was 0.32 nM; in assay [4] it was 5.1 nM. Moreover, the koff in [5] is 0.0013 s⁻¹; in assay [6] it was 0.0071 s⁻¹; in [7], 0.00025 s⁻¹; in assay [8] it was 0.0034 s⁻¹. Besides, the binding result in [9] and in [10] was “no binding” in each case.

B2: C01010094 (604F02-ALB26) (VHH, not shown: small tags and cut ends)
VHH: DVQLVESGGGLVQPGGSLRLSCAASGRTFSSYTMGWFRQAPGKEREFVAAISWSGGRTYYADSVKGRFTISRDNSKNTVYLQMNSLRPEDTAVYYCAAYRRRRASSNRGLWDYWGQGTLVTVSS
notes: also called C010100094
B2: the EC50 in [1] turned out to be 1.6 nM; in assay [2], 2.6 nM; in assay [3], 5.9 nM; in assay [4], 1.2 nM. Moreover, the koff is 0.26 s⁻¹ in assay [5], 0.12 s⁻¹ in assay [6], 0.26 s⁻¹ in assay [7] and 0.17 s⁻¹ in [8]. In addition, the binding result in assay [9] and in assay [10] was “no binding” each time.

B3: C01010106 (ALB26-604F02-604F02) (VHH, not shown: large carriers; small tags and cut ends)
VHH 1: DVQLVESGGGLVQPGGSLRLSCAASGRTFSSYTMGWFRQAPGKEREFVAAISWSGGRTYYADSVKGRFTISRDNSKNTVYLQMNSLRPEDTAVYYCAAYRRRRASSNRGLWDYWGQGTLVTVSS
VHH 2: DVQLVESGGGLVQPGGSLRLSCAASGRTFSSYTMGWFRQAPGKEREFVAAISWSGGRTYYADSVKGRFTISRDNSKNTVYLQMNSLRPEDTAVYYCAAYRRRRASSNRGLWDYWGQGTLVTVSS
B3: the results for the EC50 in assay [2], in [3] and in assay [4] were 0.097 nM, 0.1 nM and 0.066 nM, respectively.

B4: C01010060 (606A07-ALB26) (VHH, not shown: small tags and cut ends)
VHH: DVQLVESGGGLVQPGGSLRLSCVASGRTFSIYGMGWFRQAPGKEREFVAAINGGSRTYYADSVKGRFTISRDNSKNTVYLQMNSLRPEDTAVYYCAADRSGYGTSLDWWYDYWGQGTLVTVSS
As for B4, the EC50 was found to be 6.9 nM in assay [2], 8.4 nM in assay [3] and 12 nM in [4]. For the same molecule, the koff in [5] is 0.027 s⁻¹; in [6], 0.038 s⁻¹; in assay [7] it was 0.021 s⁻¹; in [8], 0.021 s⁻¹. Besides, in assay [9], the binding result is given as “no binding”.

B5: C01010113 (ALB26-606A07-606A07) (VHH, not shown: small tags and cut ends)
VHH 1: DVQLVESGGGLVQPGGSLRLSCVASGRTFSIYGMGWFRQAPGKEREFVAAINGGSRTYYADSVKGRFTISRDNSKNTVYLQMNSLRPEDTAVYYCAADRSGYGTSLDWWYDYWGQGTLVTVSS
VHH 2: DVQLVESGGGLVQPGGSLRLSCVASGRTFSIYGMGWFRQAPGKEREFVAAINGGSRTYYADSVKGRFTISRDNSKNTVYLQMNSLRPEDTAVYYCAADRSGYGTSLDWWYDYWGQGTLVTVSS
notes: also called AL326-606A07-606A07
For the molecule B5, the EC50 in assay [2] is 3 nM; in assay [3] it was 0.12 nM; in assay [4] it was 0.67 nM; in assay [10] it was 0.87 nM.

B6: C01010097 (608A05-ALB26) (VHH, not shown: small tags and cut ends)
VHH: DVQLVESGGGLVQPGGSLRLSCAASGRTFSTYTMGWFRQAPGKEREFVAAISWSGGTTYYADSVKGRFTISRDNSKNTVYLQMNSLRPEDTAVYYCAARPRYYYYSLYSYDYWGQGTLVTVSS
In the case of B6, the EC50 in [1] was found to be 0.28 nM; in assay [2], 25 nM; in assay [3], 0.33 nM; in assay [4], 0.24 nM. Also, the koff in [5] stood at 0.0027 s⁻¹; in [6], 0.083 s⁻¹; in assay [7], 0.0015 s⁻¹; in assay [8], 0.0025 s⁻¹. Further, the binding result in assay [9] and in assay [10] was “no binding” throughout.

B7: C01010109 (ALB26-608A05-608A05) (VHH, not shown: small tags and cut ends)
VHH 1: DVQLVESGGGLVQPGGSLRLSCAASGRTFSTYTMGWFRQAPGKEREFVAAISWSGGTTYYADSVKGRFTISRDNSKNTVYLQMNSLRPEDTAVYYCAARPRYYYYSLYSYDYWGQGTLVTVSS
VHH 2: DVQLVESGGGLVQPGGSLRLSCAASGRTFSTYTMGWFRQAPGKEREFVAAISWSGGTTYYADSVKGRFTISRDNSKNTVYLQMNSLRPEDTAVYYCAARPRYYYYSLYSYDYWGQGTLVTVSS
Turning to B7, the EC50 was 0.077 nM in assay [1], 0.33 nM in [2], 0.095 nM in assay [3] and 0.1 nM in [4].

B8: C01010054 (114F08-ALB26) (VHH, not shown: small tags and cut ends)
VHH: EVQLVESGGGLVQAGGSLRLSCAASGSTFIINVVRWYRRTPGKQRELVATISSGGNANYVDSVRGRFSISRDGAKNAVDLQMNGLKPEDTAVYYCNVPTTHYGGVYYGPYWGQGTQVTVSS
notes: also called C010100054
Turning to B8, the EC50 in assay [1] turned out to be 5.6 nM; in [2], 3 nM; in [3], 7.6 nM; in [4], 6 nM. In addition, the koff stood at 0.47 s⁻¹ in assay [5], 0.011 s⁻¹ in assay [6], 0.65 s⁻¹ in assay [7] and 0.013 s⁻¹ in [8]. For the same molecule, the binding result in [9] and in [10] was “no binding” in each case.

B9: C01010118 (ALB26-114F08-114F08) (VHH, not shown: small tags and cut ends)
VHH 1: EVQLVESGGGLVQAGGSLRLSCAASGSTFIINVVRWYRRTPGKQRELVATISSGGNANYVDSVRGRFSISRDGAKNAVDLQMNGLKPEDTAVYYCNVPTTHYGGVYYGPYWGQGTQVTVSS
VHH 2: EVQLVESGGGLVQAGGSLRLSCAASGSTFIINVVRWYRRTPGKQRELVATISSGGNANYVDSVRGRFSISRDGAKNAVDLQMNGLKPEDTAVYYCNVPTTHYGGVYYGPYWGQGTQVTVSS
notes: also called C010100118
On to B9, for which the EC50 in assay [1] came out at 0.37 nM; in assay [2], 0.24 nM; in [3] it was 0.19 nM; in assay [4] it was 0.11 nM.
